We go through 13 molecules from patent US20250326828A1 (STAIDSON BEIJING BIOPHARMACEUTICALS, published 2025).

In assay [1] the target is T1, human GDF15-his (human).
T1 chain: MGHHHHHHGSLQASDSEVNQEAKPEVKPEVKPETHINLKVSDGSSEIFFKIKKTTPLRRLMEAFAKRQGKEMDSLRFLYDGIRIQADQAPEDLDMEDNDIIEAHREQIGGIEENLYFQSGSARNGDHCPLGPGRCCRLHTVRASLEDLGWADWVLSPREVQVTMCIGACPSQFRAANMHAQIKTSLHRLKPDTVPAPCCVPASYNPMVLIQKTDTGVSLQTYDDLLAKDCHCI
Nature of the assay: cell-based or functional assay.

Assay [2] concerns the target T1, human GDF15-his. Nature of the assay: ELISA; antibody coated, human GDF15-his titrated, anti-his-HRP detection. How it is done: (§1) ELISA binding assay: The purified monoclonal antibody was subjected to a binding assay with human GDF15-his protein. The binding assay was designed to characterize the binding activity of the anti-GDF15 antibody. Briefly, a 96-well plate was coated with anti-GDF15 antibody (200 ng/well) and incubated for 1 hour at 37° C. The plates were washed with PBST and then blocked for 1 hour at room temperature using 1% BSA. Then 100 µl/well of gradient-diluted human GDF15-his solution (dose range 0-50 μg/ml) was added into plates. After incubation, 100 μl of anti-his tag secondary antibody (anti-his-HRP (1:2000), Bersee, cat #BHR790) was added to each well. Finally, the TMB solution (100 μl/well) was added. 2M H₂SO₄ was used to stop the reaction. The OD450 was measured, and the binding curves were generated by PRISM software to analyze the affinity of candidate antibodies to human GDF15 antigen, and EC₅₀ value were calculated.
A general note: ELISA stands for enzyme-linked immunosorbent assay.

The target in assay [3] is T2, human GDF15-hFc (human).
T2 construct: Recombinant hFc-tagged fusion protein expressed in 293F cells
T2 chain: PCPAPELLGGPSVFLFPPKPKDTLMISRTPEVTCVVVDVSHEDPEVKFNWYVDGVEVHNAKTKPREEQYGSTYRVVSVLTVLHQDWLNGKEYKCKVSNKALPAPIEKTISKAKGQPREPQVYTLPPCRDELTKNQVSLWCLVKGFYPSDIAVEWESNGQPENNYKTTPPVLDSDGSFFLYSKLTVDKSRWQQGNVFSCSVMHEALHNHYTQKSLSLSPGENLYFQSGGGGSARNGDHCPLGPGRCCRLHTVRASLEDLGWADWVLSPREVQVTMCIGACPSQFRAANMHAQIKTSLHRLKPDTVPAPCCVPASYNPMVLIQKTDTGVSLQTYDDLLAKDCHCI
Put plainly: competition ELISA; GFRAL-his coated, antibody titrated against human GDF15-hFc, anti-human IgG-HRP detection. The protocol:
(§2) The ELISA assay was performed to measure the inhibitory activity of anti-GDF15 antibodies in concentration gradients to block GDF15 binding to GFRAL receptor. IC₅₀ values were used as a measure for neutralizing activity of candidate molecules. Briefly, 96-well plates were coated with 100 ng/well of GFRAL-his protein (SEQ ID NO: 74), and incubated for 1 h at 37° C. The plates were washed with PBST and then blocked for 1 hour at 37° C. with 1% BSA. Gradient-diluted antibodies (dose range 0˜10 μg/ml) was added into each well, immediately followed by equal volume of human GDF15-hFc protein ([…]). After incubation and washing, 100 μl of anti-human IgG secondary antibody (goat anti-human IgG-HRP, Sigma, A8667) was added to each well. Finally, TMB solution (100 μl/well) was added. 2M H₂SO₄ was used to stop the reaction. The OD450 was measured and the binding curve was generated by PRISM to calculate the IC₅₀ value.

For assay [4], the target named is T1, human GDF15-his. Put plainly: cell-based or functional assay.
For assay [5], the target named is T2, human GDF15-hFc. Nature of the assay: competition ELISA as in Example 2; GFRAL-his coated, antibody titrated against human GDF15-hFc. How it is done: as §2
In assay [6] the target is T1, human GDF15-his. Put plainly: ELISA as in Example 2: plate coated with the antibody, graded human GDF15-his, anti-his-HRP, OD450; the sheet's x axis reads 'Log GDF15 Antibody (nM)'. How it is done: as §1
Assay [7] has as its target T1, human GDF15-his. Nature of the assay: cell-based or functional assay.
Assay [8] concerns the target T1, human GDF15-his. Put plainly: ELISA as in Example 2: plate coated with the antibody, graded human GDF15-his, anti-his-HRP, OD450; the sheet's x axis reads 'Log GDF15 antibody (nM)'. How it is done:
as §1

The target in assay [9] is T1, human GDF15-his. Put plainly: ELISA as in Example 2: plate coated with the antibody, graded human GDF15-his, anti-his-HRP, OD450; the sheet's x axis reads 'Log GDF15 Antibody (nM)'. How it is done:
as §1

Assay [10] addresses T1, human GDF15-his. Nature of the assay: cell-based or functional assay.
Assay [11] deals with T1, human GDF15-his. Put plainly: cell-based or functional assay.

Where a chain is given by its changes, count along the chain named. Like-named read-outs stand apart in the source and are kept apart here.

A word on the EC50: it is the concentration giving half of the maximal effect. Low values mean higher potency in that assay, high ones lower potency in that assay. For orientation: IC50 means the point on the concentration scale where inhibition reaches its midpoint. Read a high IC50 as weaker potency in that assay. As a reminder, the EC50 (read off the curve) is the concentration that produces a half-maximal response. High values mean lower potency in that assay, low ones higher potency in that assay.

B1: GDF-R44-rabIg1 (antibody, V domains shown)
VH: QSVKESGGRLVTPGTPLTLTCKASGFSLSTYWMSWVRQAPGKGLEWIGTIYAGSGGTWYASWVKGRFTISKTSTTVDLKMTSLTTEDTATYFCVRGPNYSDAIWGPGTLVTVSS
VL: DIVLTQTAASVSEPVGGTVTIKCQASEYIYSSLAWYQQKPGQPPKLLIYDASDLASGVPSRFKGSGYGTEFTLTISGVQCGDAATYYCQCTDLSSSAGNTFGGGTEVVVK
notes: Full-length rabbit antibody: rabbit IgG1 heavy constant and rabbit light constant; also called GDF15-R44-rabIg1
For the molecule B1, the “IC50, 293T-GFRAL/RET-Luc SRE luciferase reporter cells stimulated with human GDF15-his (15 ng/ml)” value in assay [1] was 0.27 nM. Besides, the EC50 in [2] worked out at 54.8 nM. This molecule also yielded an IC50 in [3] of 1.98 nM.

B2: GDF-R31-rabIg1 (antibody, V domains shown)
VH: QQLKESGGRLVTPGTPLTLTCTVSGFSLSDYYMSWVRQAPGKGLEWIGDIYGGSGTTDYASWVKGRFTISKTSTTVDLRIASPTTEDTATYFCGRGITADIWGPGTLVTVSL
VL: DIVLTQTPASVEAAVGGTVTIKCQASQSISSYLAWYQQKPGQPPKLLIYKASTLASGVPSRFKGSGSGTEFTLTISDLECADAATYYCRCIYGDSYGAAFGGGTEVVVQ
notes: Full-length rabbit antibody: rabbit IgG1 heavy constant (pTTa1-rab Ig1-H) and rabbit light constant (pTTa1-rab-CLB4); also called GDF15-R31-rabIg1
In turn, B2 displayed an EC50 in assay [2] of 66.5 nM. In [3], this molecule displayed an IC50 of 2.28 nM.

B3: GDF-R54-rabIg1 (antibody, V domains shown)
VH: QQLKESGGRLVTPGTPLTLTCTVSGFSLSSYDMTWVRQVPGKGLEWIGIINNSGNTYYASWAKGRFTISKTSTTVDLKITSPTTEDTATYFCARGILVYADYGDHNLWGPGTLVTVSS
VL: DVVMTQTASPVSAAVGGTVTINCQASEDIYTNLAWFQQKPGQPPKLLIYAASTLASGVPSRFSGSGSGTEFTLTISGLQCDDAATYFCLGVYTYISADGAFGGGTEVVVK
notes: Full-length rabbit antibody: rabbit IgG1 heavy constant and rabbit light constant; also called GDF15-R54-rabIg1
B3: the “IC50, 293T-GFRAL/RET-Luc SRE luciferase reporter cells stimulated with human GDF15-his (15 ng/ml)” value in [1] was determined as 0.18 nM. A half-maximal response in [2] (EC50) required 30.9 nM. The IC50 in assay [3] came to 0.82 nM.

B4: hum_R37-10 (antibody, V domains shown)
VH: EVQLVESGGGLVKPGGSLRLSCAASGFSLSNYYMSWVRQAPGKGLEWIGMISFSGTTYATWAKGRFTISRDDSKNTVYLQINSLKTEDTAVYFCARVVYAGWTYPLGIWGQGTLVTVSS
VL: DIQMTQSPSSLSASVGDRVTITCQASQSISSVLSWYQQKPGKPPKALIYEASILASGVPSRFSGSGSGTDFTLTISSLQPEDFATYYCQANYDVYNYGNPFGGGTKVEIK
notes: Tested in human IgG1 format
For the molecule B4, the “IC50 (read off the curve), SRE-luciferase signal in 293T-GFRAL/RET-Luc cells with human GDF15-his” value in assay [4] is ~0.06 nM. This molecule also had an IC50 in assay [5] of 1.86 nM. In addition, in assay [6], the “EC50 (read off the curve)” value is ~80 nM.

B5: hum_R37-12 (antibody, V domains shown)
VH: B4 VH with I48V, V77L, I81M
VL: B4 VL
notes: Tested in human IgG1 format
Regarding B5, in [7], the “IC50 (read off the curve), SRE-luciferase signal in 293T-GFRAL/RET-Luc cells with human GDF15-his” value was ~0.05 nM. The IC50 in [5] stood at 1.83 nM. In addition, the “EC50 (read off the curve)” value in [6] was ~80 nM.

B6: hum_R37-16 (antibody, V domains shown)
VH: B4 VH
VL: B4 VL with A46L
notes: Tested in human IgG1 format
With B6, in assay [7], the “IC50 (read off the curve), SRE-luciferase signal in 293T-GFRAL/RET-Luc cells with human GDF15-his” value is ~0.08 nM. This molecule also displayed an IC50 in [5] of 1.63 nM. The “EC50 (read off the curve)” value in assay [8] is ~200 nM.

B7: hum_R37-6 (antibody, V domains shown)
VH: B4 VH with I48V, V77L, I81M
VL: B4 VL with M4L
notes: Tested in human IgG1 format
With B7, in assay [4], the “IC50 (read off the curve), SRE-luciferase signal in 293T-GFRAL/RET-Luc cells with human GDF15-his” value was ~0.06 nM. In addition, the IC50 in assay [5] is 1.72 nM. The “EC50 (read off the curve)” value in assay [9] is ~60 nM.

B8: hum_R37-4 (antibody, V domains shown)
VH: B4 VH
VL: B4 VL with M4L
notes: Tested in human IgG1 format
As to B8, the “IC50 (read off the curve), SRE-luciferase signal in 293T-GFRAL/RET-Luc cells with human GDF15-his” value in assay [4] was ~0.06 nM. In assay [5], the IC50 came out at 1.76 nM. For the same molecule, in [9], the “EC50 (read off the curve)” value was ~60 nM.

B9: hum_R37-17 (antibody, V domains shown)
VH: B4 VH with I48V
VL: B4 VL with A46L
notes: Tested in human IgG1 format
With B9, in assay [7], the “IC50 (read off the curve), SRE-luciferase signal in 293T-GFRAL/RET-Luc cells with human GDF15-his” value was ~0.08 nM. The molecule further came in with an IC50 in assay [5] of 1.33 nM. In addition, in assay [8], the “EC50 (read off the curve)” value was ~200 nM.

B10: GDF-R36-rabIg1 (antibody, V domains shown)
VH: QSLEESGGRLVTPGTPLTLTCTASGFSLSNYYMSWVRQAPGEGLEWIGMISFSGTTYATWAKGRFTISKTSTTVDLKITSPTTEDTATYFCARVVYAGWTYPLGIWGPGTLVTVSS
VL: DPVLTQTPASVSEPVGGTVTIKCQASQSISSVLSWYQQKPGQPPKVLIYEASTLASGVPSRFKGSGSGTDFTLTISDLECADAATYYCQANYDVYNYGNPFGGGTEVVVK
notes: Full-length rabbit antibody: rabbit IgG1 heavy constant and rabbit light constant; also called GDF15-R36-rabIg1
B10: the “IC50, 293T-GFRAL/RET-Luc SRE luciferase reporter cells stimulated with human GDF15-his (15 ng/ml)” value in assay [1] turned out to be 0.17 nM. This molecule came in with an EC50 in assay [2] of 44.4 nM. This molecule also showed an IC50 in assay [3] of 1.44 nM.

B11: GDF-R37-rabIg1 (antibody, V domains shown)
VH: B10 VH with S2Q, E4K, V114I
VL: B10 VL with D1A, P2V, P8A, V46A, T53I
notes: Full-length rabbit antibody: rabbit IgG1 heavy constant and rabbit light constant; also called GDF15-R37-rabIg1
As to B11, in assay [1], the “IC50, 293T-GFRAL/RET-Luc SRE luciferase reporter cells stimulated with human GDF15-his (15 ng/ml)” value amounted to 0.15 nM. Besides, the “IC50 (read off the curve), SRE-luciferase signal in 293T-GFRAL/RET-Luc cells with human GDF15-his” value in [10] was ~0.2 nM; in assay [11] it was ~0.1 nM; in assay [4], ~0.05 nM; in assay [7], ~0.06 nM. A half-maximal response in assay [2] (EC50) required 43.1 nM. In addition, the IC50 turned out to be 2.49 nM in [5] and 1.28 nM in assay [3]. Moreover, the figures for the “EC50 (read off the curve)” value in [9], in assay [6] and in assay [8] were ~60 nM, ~80 nM and ~200 nM, respectively.

B12: GDF-R35-rabIg1 (antibody, V domains shown)
VH: B10 VH
VL: B10 VL with D1A, P2I, V3N, L4M, L54Q
notes: Full-length rabbit antibody: rabbit IgG1 heavy constant and rabbit light constant; also called GDF15-R35-rabIg1
For B12, the “IC50, 293T-GFRAL/RET-Luc SRE luciferase reporter cells stimulated with human GDF15-his (15 ng/ml)” value in assay [1] is 0.21 nM. This molecule also returned an EC50 in [2] of 31.3 nM. In [3], the IC50 was found to be 1.32 nM.

B13: GDF-R45-rabIg1 (antibody, V domains shown)
VH: B10 VH with L3V, E4K, N30D, S34T, T70A
VL: B10 VL with D1Y, P2V, V3M, L4M, A9P
notes: Full-length rabbit antibody: rabbit IgG1 heavy constant and rabbit light constant; also called GDF15-R45-rabIg1
Regarding B13, the “IC50, 293T-GFRAL/RET-Luc SRE luciferase reporter cells stimulated with human GDF15-his (15 ng/ml)” value in assay [1] was determined as 0.18 nM. In [2], this molecule came in with an EC50 of 68.9 nM. The IC50 in assay [3] was 1.56 nM.
